The values below come from article PMC4176424, “Thiolation-enhanced substrate recognition by D-alanyl carrier protein ligase DltA from Bacillus cereus” (F1000Research, 2014).

Data set [1] concerns the target BcDltA (D-alanyl carrier protein ligase DltA) (Bacillus cereus, UniProt Q81G39). In words: biochemical.
Data set [2] deals with C[C@@H](N)C(=O)O. Nature of the data set: purified protein. The conditions noted are these: 5 mM ATP, 5 mM CoA, 10 mM MgCl2, 0.1 M KCl, pH 7.2.
Excerpt: pyrophosphate release, pyrophosphatase-coupled malachite green assay on BcDltA (D-alanyl carrier protein ligase DltA)

BcDltA (D-alanyl carrier protein ligase DltA), sequence (Q81G39 whole entry): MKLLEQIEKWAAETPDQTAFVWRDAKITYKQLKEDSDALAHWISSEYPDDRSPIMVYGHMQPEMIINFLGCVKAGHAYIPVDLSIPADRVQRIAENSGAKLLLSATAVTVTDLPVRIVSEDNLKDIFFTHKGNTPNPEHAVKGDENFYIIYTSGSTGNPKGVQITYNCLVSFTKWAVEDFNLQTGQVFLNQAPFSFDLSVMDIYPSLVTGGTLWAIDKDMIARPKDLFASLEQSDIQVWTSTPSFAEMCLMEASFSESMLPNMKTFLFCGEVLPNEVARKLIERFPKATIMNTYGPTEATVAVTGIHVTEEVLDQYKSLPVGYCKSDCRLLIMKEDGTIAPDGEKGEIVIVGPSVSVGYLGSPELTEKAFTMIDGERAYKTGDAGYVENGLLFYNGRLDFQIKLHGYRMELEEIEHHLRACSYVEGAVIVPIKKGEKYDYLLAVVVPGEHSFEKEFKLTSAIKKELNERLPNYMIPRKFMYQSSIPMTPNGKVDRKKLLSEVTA

One may read the Kd as the free concentration of one partner at which half of the binding sites on the other are occupied at equilibrium, for simple one-to-one binding. `Nc1ncnc2c1ncn2[C@@H]1O[C@H](COP(=O)(O)OP(=O)(O)OP(=O)(O)O)[C@@H](O)[C@H]1O` [ATP]: the dissociation constant Kd in data set [1] came out at 430 µM.

The term kcat denotes the maximal rate divided by the concentration of active sites. What is called kcat/Km is the second-order rate constant that governs catalysis at low substrate concentration. For “BcDltA (D-alanyl carrier protein ligase DltA) (Bacillus cereus ATCC 14579)”, in data set [2], the Km is reported as 0.03 ± 0.01 × 10^-3 M, the kcat came out at 0.182 ± 0.00333 s⁻¹ and the catalytic efficiency (kcat/Km) was 6050 ± 1670 M⁻¹ s⁻¹.
